Protein production data for 17 sequences are collected here from a protein production outcome set (Wang et al. 2014).
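Note: failed if final PepcDB status was selected cloned or expressed and not failed if soluble or beyond.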

The series in a line: label from the status in PepcDB records.
With “MNRNRQLSDPSRFSGMAAGFFMATLGAVLFSGKAIVVKFTYRYGIDAVTLIAFRMLFAMPFFAAVAWWQARRAARGELPVLSWRERGQLCALGLLGYYLSSFLDFLGLRHITAGLERLILFLSPSLVVLLSAWWLKRPVTRRQWGAMLLSYVGVALVLSHDLSQSGAGADVLTGSFFVFCSALSYSVYLICSGELVERVGATRLVAYAMLVSCVASLIQFFLIHPASVLVQPAAVYGYSVIHATVNTVLPVFMLMWAVALVGAPTASLLGMVGPVSVLFLAAWFLDEPITVWQLAGTALVLAGVFVLAGRRRPARP”, the protein production entry is listed as “failed”. In the case of “MNRREVRCAFSASKAARAQLLLRGKVRLEPLPTRPRTVLGLDASYSAKDGVGVGAAVLISLETLEPVDCRVYISRVCIPYIPGLLAFRELAVMAPAAAALSAEADVVMVDGHGIAHPRRFGIASHVGVILERPSIGVAKKKLVGTLVEGPGGMYVVQDGERLAIVLGTRPREVYVSPGHRITLEEAASIARATIRPGGWMPEPTRLADVISKALKTIIGGQSLINSALASLCRVKLGPRLEELERPLRRAGLEVELEHHHHHH”, the protein production entry was “failed”. Consider “MNRVIACIDSSPCINAIAEAAAWVARQTKRELVLLQILDYYPASYHLGEISGVIGFESNAMLLKELAELEQKQSDLAIDYSNNLLKHISDMILEKYGIQSTKIQEKGDFLEQSFNVLRETDFVIIGKVGERAAEKNKPIGSNVENFIRGANCTVMTVGEHFKIPTRFIFAYEYSPTCLNLMQRIAQSDLLKTLQCHLLYVGDHPEVLKDPEEFLKNAGLDVITVYRYGDVAENILEYQKELGIQMIVLGAFSHSKIHQFFLGSIATSIFRNATVPLLVAK”, for which the protein production result is reported as “failed”. The entry for “MNSAVGAELFMGDDGVSLRPGLGGTESVLESWRYIMGKLRVGRFLISSRVNGPGRRFVIWFQGCPIRCRGCLNPEFHDEDGGHLIETARLVDMIRDLRDEIEGVTFTGGEPLAQAMELVKLAGAVKSMGLTVVCFTGYEMDEILKGNIEGGLELLEFVDVLIDGPYIEEKSAPLLWRGSTNQDVYFLTERYAEFRDRVMACSEMEAELKVGADGVYMTGIFDVEFWEELRRRLGDGSLEHHHHHH” is “failed”; for “MNSFLIIIFRLYLPISVAILTGVLLSFSLEKLQGNFSKNKHLSLVVPNYLGKFLFWFGVPLGVINFVHKANLSGGIWLSPIVAWGAVVLGIFLSWLWVQTLFPKPSLAFQTSFTLVSTVGNTSYIGFPIILLLPQLGPDYFGWAILYDLLGTFLAAYGLGSILASRSLLTNPNKIISFGLDSPVFPINQKTITDHIKSSILKIFQWLKNNLVILVKNPTLIAFIIGLILRPIVFPPWLDISLGWFAWSIIMLSLILMGMRLQQLDSWGNIKIAFSAVSIKMLLVPLVIAMALTTAGLSGPPRLVLVLQSSMPSAFASLILAEAYDLDRDLVVTCLGLSSLMLFFTLPFWLWGFTTW” it is “failed”. Consider “MNSILPSVSTLAVGARPARPNVSVVMVVYRTGEALVESIRHVLAEPLVDEFIIVDNGSSSRDEDMLRSLALTEPRVVLKQGHGNVGFARGANLGAVTAGGEYIVFLNPDANLQPSCVASLVTAFKGQPVPTIVGARVLNTDGSEQRGGRRGDVTPISTVLSFGQLTRRYPKLAGFEIHRENEPLPGAPVPMPTISGACFAMRRADFVALNGFDEGYFLHVEDIDLCWRARRAGGQVLFQPNAEVVHLGHTSLEHPVKVEFHKGVGLTRYFIKRADSLQLFAAAVLLAPAIMLMSVCRPLLWKLTGRPI”, for which the protein production entry is “failed”.

“MNSKAMQALIFLGFLATSCLAQAPAPAPTTVTPPPTALPPVTAETPSPIASPPVPVNEPTPAPTTSPTTSPVASPPQTDAPAPGPSAGLTPTSSPAPGPDGAADAPSAAWANKAFLVGTAVAGALYAVVLA”: the protein production result was “failed”. Regarding “MNSKTHLLLALTMLIWAGSFIFIKIGLKELDPFNLAFYRFLLASPLLMAWVFWKRGLAKPSGSEWLHLSVLALSGVTLLYAFQFLALKYTTATNASILINTSAVFVALWGLVKGEANPRKLAGVFLSFAGVVLIVSKGTLEFFSSKTIFGDVLMIVDGFLWAVYTVLGSKMLLKYDHETLTAYAFALGTIFLIPFALMSGFANPVTFNPETVAALLYLSILCSVFAYVVWYYALTNADSTSVAVYVYLVPLFTAIFAFYALNEKPDFFTAIGGIITIAGVYLTTAKQHQ”, the protein production result is “failed”. As to “MNSLDKLKTFIIILIIFSIGFFSRIETAELKGMNTADRAYFTDENGLPYMYEPDSYYNYRLTANILDHGHPGDKIINGTPWDLHSNYPPGNRVNYPPLILWISLLFHNFINLFIPFSLIETCFWLPAIIGPLAGIVMFFMVRRYAGDLPGLLSGVLLVLAPVYFSRTVPGFFDTDMFNIIFPLLVIFFLLKATETKNNYMFPLLLSSFSLALLSLSWNGWAYIFYIIIISSILYMTLCKLKGKAVMGFSRKIAVFVIISLLIIGLAGRLGYALIFPTFFKFTFKSLSAGGWPGIFESISELSAPTFDEFLSLPGPVNMGIGLFGFVIIGSIMLRDEIKRVHLPDFSWYPFILIGIWLIIGLAAYSLSTRFALLVIPPLIIFLGLLMGVMASYLKGSPSMRLRRSGNVFILSLVVMLSTISFIQAYEIQFVPIVDDDFVAASYWIKNETSMDTVVITEWGYGHPLATFSQRPVLMDGGMNPSTPRSYWVYHAFATNNESLSIGIFSMLSTSGNKAVELLNNRTGNTSLTVTILDDILGVNRIYAEKTLQEKYGIDPGFTGELLSYTHPTNKPFIILTKDDMIKWGHWYIYYGFWDFNRSRGYDYIYYVGSSNDTGQIRYYSNDVKFDLTSGASWENRKPYTTIIKYRNFKRVIEGDGKSDFSIIVLLDKNQAIVVDKRFQDSLFVKLVILKEETEHIKPIYKNNSTIIWTVR”, the protein production result is “failed”.

In the case of “MNSLPGSIQTSRTNQQRPLISVIVPAYNAEDFILEALRSITAQDYEPLEILLVDDGSTDGTADLVRREMPTVRIIRQDNTGVAEARNTGLRNACGEFICLLDADDGWCPGKLHAQVQYLQQHPQTGAVYHAWQVWRPDAEGNFVSMPAPVVADSTAIDPALSGWIYPQLLMDCIVHTSTIMMRREFVEQLGFFRAELINGEDYDYWLRLSRLTRIDKLVGVYSFYRGSPGSLTNSVKPVNYEYNVVSAAAAKWGLAAPDGRALAAVDFQRRLGKLAFDFAYRHYRWGSARIARRAALQAWRHDPRRYKALLFWLASFFKREPRSAVQG”, the protein production entry is given as “failed”. The entry for “MNSPWETESGDRRVESGAGVSVGGRGQSRPRSCSIKAAEGKKGRSSACAPRWRLRSALLREDRCRSAPRIPRGCFSPRAPWRGGNSCAHCPRPRSGRPETGRAWGSRRAPRRGRPPAHGAPRPLPGLPRAASDRWAPARTSLIFILCPRGCLLLSARTLGIPWQPTSLRSRPTSLSPASCATQRASSWACSSASIETRPLNFFISYDAPPLRTRTIKLLVTFLVEEVSRNGAAKQEQFQETLYFTHLPRDKRLQKELLALQNDPPPGMTLNEKSVQNSITQWIVDMEGAPGTLYEGEKFQLLFKFSSRYPFDSPQVMFTGENIPVHPHVYSNGHICLSILTEDWSPALSVQSVCLSIISMLSSCKEKRRPPDNSFYVRTCNKNPKKTKWWYHDDTC” is “failed”; for “MNSQEQRGSFYAILSGFLYGFIGYFGISAIHGDLSASNMLFWRFLISSIFILIVLIPQLKNINDTYKSMFTAFLSGVLYYGLSTLLYFYASLYIGSGLSMVIFFTYPVIIMVFNYFFYSQTIPKIYYLAISVILIGMALLIDVNEIAFDLWGIFLGLASAFFYACYIVSSKNNEISPNVSTLMVCLGCMTTSLIVACLDHTFKVPTSFPVWLNLFGIGLVATVIPILLMLHSLKYISSEKASILSVLEPVFVVIFGVVLLGEELKPWHALGIVLVLAGALITLFSHRINLNQWLGAIYKS” it is “failed”; for “MNSTLKSSVYILLIISVILVLNGYSYADSYVGGKPLDTLQNGTVTGDVNVDSYYGFTDPEGVGNNTGGNANITYTFNYTIPSNAQIKNATLYVLVYSGHMQEARQTYVNVTYNGNSLENQTLYTTYIYPPEGNNNTWLLGEGHDNDPYLMINNHTMRVTSDYLLWYDVTNMTKKDMNNTANVCTIGSYDGRIKLITLIVAYNIPGSTTATRYWINWGHDVSSYNDEDYTGETYFNGAVPNPANASVMIVHAASSDGIYTYNDQNLPNGTYQRRGSYSGYEIWNVTNIYNNGTNKFTYHKSPGTGLGGYYKIILAVQKVTYTPNIDLTLQTVTFNGGAAFVLENNTMRCQIKNNGSGASPATILALYANDELVATSIIPPINPSGTVYVNITDPTIRSATTETLYSNNNQNVTYRFVIDPYNEVPETNEANNEKTRTVPVLYNGYKG” it is “failed”.

Regarding “MNSVYFLNVSEALATPQDKLHTVRLFGTVAADGLTMLDGAPGVRFRLEDKDNTSKTVWVLYKGAVPDTFKPGVEVIIEGGLAPGEDTFKARTLMTKCPLEHHHHHH”, the protein production entry is given as “failed”. The entry for “MNSYKYLKYSQYAKQALIFINFLAVTYYVFVYLFASKYIVAKNLSHVLLDKLDIVPIAPENIFFTTLFFFAIFLIVMFYRESILNKKEEINDWLIVAEIVLMILTFISLQFSYNGLFLLVFADIFYSYANFYNVKEQKYWLLFIILGFSMLLISNFDLLSLVMRLPSLDVYISFFPSGSRLIVMFIKNFLYSLNIIVFLISLVAYIMYSVAENHKIEEELRMAARANIELNDYVSLAEKIAEDKERKRIAREIHDTLGHALTGISAGIDAVTVLVDFDPNHAKSQLKNVSDVVREGIQDVRRSLEKMRPGALEKGSLKEALLKMIADYEKLSKLQVSLHYDWDNIDLDITKEDIIFRVIQETITNSLRHGHARHVSIDMLNEDFYIIKIKDDGIGCEDFKLGYGLTQMQERLAIIGGYADFESDDGFQTMVRIPKKKGEE” is “failed”; for “MNTDNPKSHISRIAYPAIIVFLILTLLGSLVERFHPFTSWLTPPVALLMGLAYALIFGSTHRRANKLGSKVLLQYSVVGLGFGMNLGESLASGRDGMMFTIISVFGTLLLGWFIGRKILQMNRNTSALISAGTAICGGSAIAAVGPILKAEEHEMSVALGTVFLLNAVALFIFPSIGHWLALDQQQFGTWAAIAIHDTSSVVGAGSAYGEEALRVATTIKLTRALWIVPLTLVFSFVYKTKGAKRFPVPLFILFFIGAIILNTYLLEAYFPEVGRFVASLARKGLTLSLFFIGASLTKEVIASVGVRALLQGLFLWILISVGSLAFILLI” it is “failed”.

On to “MNTEAEQQLLHHARNGNAEEVRKLLEAMARAEVVADIDCKGRSKSNLGWTPLHLACYFGHKQVVQDLLKAGAKVNMLNDMGDTPLHRAAFTGRKELVMLLLEYNADTTVVNGSGQTAKEATHDKEIRQMLEAVERTQQRKLEELLLGAAREGRTAEVSALLSRPNPPDVNCSDQLGNTPLHCAAYRAHKQCVLKLLRSGADPSLKNKNDQKPLDLAHGTEMKHILVGNKVVHKALKRFEGPLWKSSRFFGWKLFWVVLEHGVLSWYRKQPDAVHNSYRQGCKHLTQAVCTVKPTDGCLFSVRCFDDTVHGFRVPKNSLQQSREKWLEAIEEHSAYSTHYCSQDQVTDDEEEDVASAMDLKESLARAQTCQQRLDREIYNFLKMIKECDVAKDMLPSFLQKADVLSEASRETCVALSDCLNLFTKQEGVRNFKLEQEQEKNKILSEALETLATEHHELERSLVEGSPPVSILSEDEFYDALSGSESEGSLTCLEAVTARAFEENEVPANSGKHRMSEGKDCGGGDALSNGIKKHRTSLPSPMFSRNDFSIWSILRKCIGMELSKITMPVIFNEPLSFLQRLTEYMEHTYLIHKASSFSDPVERMQCVAAFAVSAVASQWERTGKPFNPLLGETYELVRDDLGFRLISEQVSHHPPISAFHAEGLNNDFIFHGSIYPKLKFWGKSVEAEPKGTITLELLEHNEAYTWTNPTCCVHNIIVGKLWIEQYGNVEIINHKTGDKCVLNFKPCGLFGKELHKVEGYIQDKSKKKLCALYGKWTECLYSVDPATFDAYKKNDKKNTEEKKTSKQASTSEESDEMPVPDSESVFVIPGSALLWRIAPRPPNSAQMYNFTSFAMVLNEVDKEMETVIPKTDCRLRPDIRAMENGEIDQASEEKKRLEEKQRAARKNRSKSEEDWKTRWFHQGPNPYSGAQDWIYSGSYWDRNYFNLPDIY”, for which the protein production entry is reported as “failed”.
